Reference: patent publication US20160272948A1

Tests used:
[1] = molecular target: JRFL NFL TD15 trimer (HIV-1 strain JRFL (subtype B)); assay: ELISA, OD 450nm; antibody titrated on the captured trimer
[2] = molecular target: 16055 NFL TD8 trimer (HIV-1 strain 16055 (subtype C)); assay: as above
[3] = molecular target: 16055 NFL TD CC GL2 trimer with N332 restored; assay: ELISA, His-captured trimer, OD 450 nm
Δ276 Δ301 Δ360 Δ463 [4] = assay: ELISA, His-captured trimer, OD 450 nm
Δ276 Δ360 Δ463 [5] = assay: ELISA, His-captured trimer, OD 450 nm
[6] = molecular target: 16055 NFL TD CC GL2 trimer with N332 restored; assay: ELISA, trimer on the plate without His-capture (panel 'plate 2G12'), OD 450 nm
Δ276 Δ301 Δ360 Δ463 [7] = assay: as above
Δ276 Δ360 Δ463 [8] = assay: as above
[9] = molecular target: 16055 NFL TD CC GL2 trimer with N332 restored; assay: ELISA, OD 450 nm
Δ276 Δ301 Δ360 Δ463 [10] = assay: ELISA, OD 450 nm
Δ276 Δ360 Δ463 [11] = assay: ELISA, OD 450 nm
JRFL SOSIP TD [12] = assay: BLI; IgG immobilized on a bio-sensor, trimer as analyte in solution, series from 400nM
[13] = molecular target: 16055 NFL TD8 trimer (HIV-1 strain 16055 (subtype C)); assay: as above
[14] = molecular target: 16055 NFL TD8 trimer (HIV-1 strain 16055 (subtype C)); assay: ELISA, OD 450 nm; His-tagged trimer captured by anti-His mAb on the plate, antibody titrated
[15] = molecular target: 16055 NFL TD8 CC trimer (HIV-1 strain 16055 (subtype C)); assay: BLI; IgG immobilized on a bio-sensor, trimer as analyte in solution, series from 200nM
[16] = molecular target: 16055 NFL TD8 CC trimer (HIV-1 strain 16055 (subtype C)); assay: ELISA, OD 450nm; antibody titrated on the captured trimer
[17] = molecular target: 16055 NFL TD8 trimer (HIV-1 strain 16055 (subtype C)); assay: BLI (Octet), IgG on anti-human Fc sensors, trimer as analyte, global fit 1:1
[18] = molecular target: JRFL NFL TD15 trimer (HIV-1 strain JRFL (subtype B)); assay: BLI (Octet), series from 200nM, 1:1 global fit; paragraph 228: IgG on anti-human IgG Fc sensors, trimer as analyte
[19] = molecular target: 16055 NFL TD8 trimer (HIV-1 strain 16055 (subtype C)); assay: as above
[20] = molecular target: 16055 NFL TD8 trimer (HIV-1 strain 16055 (subtype C)); assay: ELISA, OD 450nm, mAb 5 to 0.00032 ug/mL on the trimer, without sCD4
[21] = molecular target: 16055 NFL TD8 CC trimer (HIV-1 strain 16055 (subtype C)); assay: as above
[22] = molecular target: JRFL NFL TD15 trimer (HIV-1 strain JRFL (subtype B)); assay: ELISA, OD 450 nm; His-tagged trimer captured by anti-His mAb on the plate, antibody titrated
[23] = molecular target: JRFL NFL TD15 CC trimer (HIV-1 strain JRFL (subtype B)); assay: ELISA, OD 450nm; antibody titrated on the captured trimer
[24] = molecular target: JRFL NFL TD15 trimer (HIV-1 strain JRFL (subtype B)); assay: BLI (Octet), IgG on anti-human Fc sensors, trimer as analyte, global fit 1:1
JRFL SOSIP TD [25] = assay: BLI; VRC03 Fab as analyte in solution (series from 400nM), trimer immobilized on the sensor
[26] = molecular target: 16055 NFL TD8 trimer (HIV-1 strain 16055 (subtype C)); assay: BLI; VRC03 Fab as analyte in solution (series from 6400nM), trimer immobilized on the sensor
[27] = molecular target: 16055 NFL TD8 CC trimer (HIV-1 strain 16055 (subtype C)); assay: as above
[28] = molecular target: BG505 NFL CC trimer (HIV-1 strain BG505 (subtype A)); assay: ELISA, OD 450nm; antibody titrated on the captured trimer
16055 NFL TD GL L568G = assay: ELISA, OD 450nm, mAb 5 to 0.00032 ug/mL on the trimer

Substance: PGT121 (antibody)
- EC50 (read off the curve) [1]: 0.2 µg/mL
- EC50 (read off the curve) [2]: 0.07 µg/mL

Substance: 2G12 (antibody)
- EC50 (read off the curve) [3]: 0.1 µg/mL
- EC50 (read off the curve) (Δ276 Δ301 Δ360 Δ463 [4]): 0.1 µg/mL
- EC50 (read off the curve) (Δ276 Δ360 Δ463 [5]): 0.1 µg/mL
- EC50 (read off the curve) [6]: 0.04 µg/mL
- EC50 (read off the curve) (Δ276 Δ301 Δ360 Δ463 [7]): 0.04 µg/mL
- EC50 (read off the curve) (Δ276 Δ360 Δ463 [8]): 0.04 µg/mL

Substance: VRC05 (antibody)
- EC50 (read off the curve) [9]: 0.1 µg/mL

Substance: VRC13 (antibody)
- EC50 (read off the curve) [9]: 0.1 µg/mL

Substance: VRC18b (antibody)
- EC50 (read off the curve) (Δ276 Δ301 Δ360 Δ463 [10]): 0.04 µg/mL
- EC50 (read off the curve) (Δ276 Δ360 Δ463 [11]): 0.04 µg/mL

Substance: PGDM1400 (antibody)
- Kd (JRFL SOSIP TD [12]): 2840 nM
- Kd [13]: 21.5 nM
- EC50 (read off the curve) [14]: 0.06 µg/mL
- Kd [15]: 21.7 nM
- EC50 (read off the curve) [16]: 0.1 µg/mL
- Kd [17]: 21 nM
- Kd [18]: 36 nM
- koff [18]: 0.0011 s⁻¹
- kon [18]: 31000 M⁻¹ s⁻¹
- koff [19]: 0.0015 s⁻¹
- kon [19]: 73000 M⁻¹ s⁻¹

Substance: 8ANC131 (antibody)
- EC50 (read off the curve) [9]: 0.1 µg/mL
- EC50 (read off the curve) (Δ276 Δ301 Δ360 Δ463 [10]): 0.03 µg/mL
- EC50 (read off the curve) (Δ276 Δ360 Δ463 [11]): 0.03 µg/mL

Substance: CD4-Ig2 (Fc fusion)
- EC50 (read off the curve) [9]: 0.04 µg/mL
- EC50 (read off the curve) (Δ276 Δ301 Δ360 Δ463 [10]): 0.04 µg/mL
- EC50 (read off the curve) (Δ276 Δ360 Δ463 [11]): 0.04 µg/mL

Substance: PGT145 (antibody)
- EC50 (read off the curve) [20]: 0.07 µg/mL
- EC50 (read off the curve) [21]: 0.07 µg/mL
- Kd (JRFL SOSIP TD [12]): 4.37 nM
- Kd [13]: 40.3 nM
- EC50 (read off the curve) [22]: 0.2 µg/mL
- EC50 (read off the curve) [14]: 0.1 µg/mL
- Kd [15]: 33.2 nM
- EC50 (read off the curve) [9]: 0.02 µg/mL
- EC50 (read off the curve) (Δ276 Δ301 Δ360 Δ463 [10]): 0.01 µg/mL
- EC50 (read off the curve) (Δ276 Δ360 Δ463 [11]): 0.01 µg/mL
- EC50 (read off the curve) [16]: 0.04 µg/mL
- EC50 (read off the curve) [23]: 0.04 µg/mL
- Kd [24]: 5 nM
- koff [18]: 0.00067 s⁻¹
- kon [18]: 120000 M⁻¹ s⁻¹
- Kd [19]: 40 nM
- koff [19]: 0.0044 s⁻¹
- kon [19]: 110000 M⁻¹ s⁻¹

Substance: 8ANC134 (antibody)
- EC50 (read off the curve) [9]: 0.1 µg/mL
- EC50 (read off the curve) (Δ276 Δ301 Δ360 Δ463 [10]): 0.03 µg/mL
- EC50 (read off the curve) (Δ276 Δ360 Δ463 [11]): 0.03 µg/mL

Substance: VRC03 Fab
- Kd (JRFL SOSIP TD [25]): 13.3 nM
- Kd [26]: 168 nM
- Kd [27]: 606 nM

Substance: HJ16 (antibody)
- EC50 (read off the curve) [9]: 0.02 µg/mL

Substance: PGT128 (antibody)
- EC50 (read off the curve) [1]: 0.05 µg/mL
- EC50 (read off the curve) [2]: 0.05 µg/mL

Substance: VRC16 (antibody)
- EC50 (read off the curve) [9]: 0.05 µg/mL
- EC50 (read off the curve) (Δ276 Δ301 Δ360 Δ463 [10]): 0.03 µg/mL
- EC50 (read off the curve) (Δ276 Δ360 Δ463 [11]): 0.03 µg/mL

Substance: VRC01 (antibody)
- EC50 (read off the curve) [9]: 0.1 µg/mL
- EC50 (read off the curve) (Δ276 Δ301 Δ360 Δ463 [10]): 0.03 µg/mL
- EC50 (read off the curve) (Δ276 Δ360 Δ463 [11]): 0.03 µg/mL
- EC50 (read off the curve) [28]: 0.2 µg/mL

Substance: VRC03 (antibody)
- EC50 (read off the curve) [22]: 0.2 µg/mL
- EC50 (read off the curve) (Δ276 Δ301 Δ360 Δ463 [10]): 0.04 µg/mL
- EC50 (read off the curve) (Δ276 Δ360 Δ463 [11]): 0.04 µg/mL
- EC50 (read off the curve) [23]: 0.2 µg/mL

Substance: PG16 (antibody)
- Kd (JRFL SOSIP TD [12]): 42.4 nM
- Kd [13]: 29.6 nM
- EC50 (read off the curve) [22]: 0.03 µg/mL
- EC50 (read off the curve) [14]: 0.09 µg/mL
- Kd [15]: 26.7 nM
- EC50 (read off the curve) (16055 NFL TD GL L568G): 0.07 µg/mL
- Kd [18]: 41 nM
- koff [18]: 0.0032 s⁻¹
- kon [18]: 77000 M⁻¹ s⁻¹
- Kd [19]: 29 nM
- koff [19]: 0.0017 s⁻¹
- kon [19]: 58000 M⁻¹ s⁻¹

Substance: VRC06b (antibody)
- EC50 (read off the curve) [22]: 0.08 µg/mL
- EC50 (read off the curve) [9]: 0.1 µg/mL
- EC50 (read off the curve) (Δ276 Δ301 Δ360 Δ463 [10]): 0.03 µg/mL
- EC50 (read off the curve) (Δ276 Δ360 Δ463 [11]): 0.03 µg/mL
- EC50 (read off the curve) [23]: 0.2 µg/mL
